The values below come from patent US20230151111A1 (AKESO BIOPHARMA, published 2023).

Assay [1] concerns the target T1, PD-1-mFc (human, UniProt Q15116 25-170, limits assumed).
T1 construct: also called human PD-1-mFc
Description: ELISA, PD-1-mFc coated. As for the experimental part:
Then the microplate coated with antigens was washed once with PBST, and then blocked with a PBS solution containing 1% BSA as blocking solution at 37° C. for 2 h. After blocking, the microplate was washed 3 times with PBST. The microplate containing the test antibodies was incubated at 37° C. for 30 min, and then washed 3 times with PBST. […] The microplate was put into a microplate reader immediately, and the OD value of each well in the microplate was read at 450 nm. The data were analyzed and processed by SoftMax Pro 6.2.1.

The target of assay [2] is human PD-1-mFc-biotin (human, UniProt Q15116 25-170, limits assumed, biotin label, site not stated). Description: competitive ELISA, blocking of PD-1-mFc-biotin binding to coated PD-L1-mFc. As for the experimental part: After incubation, the microplate was blocked with a PBS solution containing 1% BSA at 37° C. for 2 h. […] The antibody was serially diluted to 7 concentrations in a gradient ratio of 1:3 on a dilution plate with 10 μg/mL as the starting concentration, and a blank control was set. […] Then the mixture after reaction was added to the coated microplate, and the microplate was incubated for at 37° C. for 30 min. After incubation, the plate was washed three times with PBST and dried. SA-HRP (KPL, 14-30-00) working solution was added, and the plate was incubated at 37° C. for 30 min. After incubation, the plate was washed four times and patted dry. Then TMB (Neogen, 308177) was added in the dark for chromogenesis for 5 min, and a stop solution was added to terminate chromogenic reaction. Then the microplate was put into a microplate reader immediately, and the OD value of each well in the microplate was read at 450 nm. The data were analyzed and processed by SoftMax Pro 6.2.1.
(In an ELISA, binding on a coated surface is turned into a signal by an enzyme label.)

The target in assay [3] is T1, PD-1-mFc. Description: BLI (Fortebio), PD1-mFc on AMC sensor, antibody 0.62-50 nM, 30 C. As for the experimental part:
The sample dilution buffer was PBS (0.02% Tween-20, 0.1% BSA, pH 7.4). […] The data were analyzed by 1:1 model fitting to obtain affinity constants.

Broadly, the EC50 is the concentration at which the effect is half-maximal. Read a high EC50 as weaker potency. The term Kd denotes the concentration at which binding is half-saturated.

T1 sequence (Q15116 other isoform, or with tags, fused parts or gaps limits assumed): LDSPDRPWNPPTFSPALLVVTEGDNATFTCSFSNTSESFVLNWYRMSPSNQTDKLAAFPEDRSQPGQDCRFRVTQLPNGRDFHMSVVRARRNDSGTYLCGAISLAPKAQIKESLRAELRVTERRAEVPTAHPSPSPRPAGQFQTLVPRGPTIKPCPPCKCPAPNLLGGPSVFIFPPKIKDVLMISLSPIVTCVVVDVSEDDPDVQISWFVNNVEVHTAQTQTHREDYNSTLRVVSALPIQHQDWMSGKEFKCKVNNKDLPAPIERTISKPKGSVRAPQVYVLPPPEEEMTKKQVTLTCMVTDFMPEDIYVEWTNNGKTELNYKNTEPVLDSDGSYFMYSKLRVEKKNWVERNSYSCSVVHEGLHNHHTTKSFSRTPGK
Chain of human PD-1-mFc-biotin (Q15116 other isoform, or with tags, fused parts or gaps limits assumed): as above

B1: 14C12H1L1(hG1TM) (antibody, human IgG1, kappa)
heavy: not shown
light: DIQMTQSPSSMSASVGDRVTFTCRASQDINTYLSWFQQKPGKSPKTLIYRANRLVSGVPSRFSGSGSGQDYTLTISSLQPEDMATYYCLQYDEFPLTFGAGTKLELKRTVAAPSVFIFPPSDEQLKSGTASVVCLLNNFYPREAKVQWKVDNALQSGNSQESVTEQDSKDSTYSLSSTLTLSKADYEKHKVYACEVTHQGLSSPVTKSFNRGEC
notes: Humanized anti-PD-1 IgG1 with L234A/L235A/G237A
Regarding B1, the half-maximal effective concentration (EC50) in assay [1] turned out to be 0.031 nM; in assay [2], 2.23 nM. This molecule also yielded a Kd in assay [3] of 0.0445 nM.
